Results taken from EP4435105.

T1: human ASGR-1 (on CHO-S cells) (human, UniProt P07306)
T1 chain: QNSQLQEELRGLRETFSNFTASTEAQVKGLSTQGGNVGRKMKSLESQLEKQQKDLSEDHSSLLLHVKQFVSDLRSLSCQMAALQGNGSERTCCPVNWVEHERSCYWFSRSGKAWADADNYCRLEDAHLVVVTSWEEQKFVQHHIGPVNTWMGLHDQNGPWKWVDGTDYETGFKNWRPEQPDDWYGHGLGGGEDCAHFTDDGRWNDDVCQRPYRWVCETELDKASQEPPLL

B1: 176H4 (antibody, V domains shown)
VH: QVQLVESGGGVVQPGRSLRLSCAASGFTFSSYGMHWVRQAPGKGLEWVAIIWYDGSYKYYADSVKGRFTISRDNSKNTLYLQMSSLRAEDTAVYYCARDAHDFWSGYFAYWGQGALVTVSS
VL: DIVMTQTPLSLSVTPGQPASISCKSSQSLLHGDGKTYLYWYLQKPGQPPQLLIYEVSNRFSGVPDRFSGSGSGTDFTLKISRVEAEDVGIYYCMQSIQIPWTFGQGTRVEIK
B2: 22G5 (antibody, V domains shown)
VH: EVQLLESGGGLVQPGGSLRLSCAASGFTFSSYAMNWVRQAPGMGLEWVSVISRSGGYTYYADSVKGRFTISRDNSKNTLYLQMNSLRAEDTAVYYCASRLAVAGSEAFDIWGQGTLVTVSS
VL: DIQMTQSPSSLSASVGDRVTITCRASQNISSYLNWYQQKQGKAPKLLIYAASSLQNGVPSRFSGRGSGTDFTLTISSLQPEDFATYYCQQSYRTPLFTFGPGTKVDFK
B3: 4A2 (antibody, V domains shown)
VH: QVQLVQSGTEVKKPGASVKVSCKASGYTFTNYDINWVRQATGQGLEWMGWMHPNSGNTGYAQKFQGRVTLTRDTSISTAYMELSSLRSEDTAVYYCASSSGWYYFDYWGQGTLVTVSS
VL: DIVMTQSPDSLAVSLGERATINCKSSQSILHSSNNNNYLAWFQQKPGQPPKLLLYWASTRESGVPDRFSGSGSGTDFTLTISSLQPEDVAVYYCQQYYNTPVTFGPGTKVGIK
B4: 5E5 (antibody, V domains shown)
VH: QVQLVESGGGVVQPGRSLRLSCAASGFTFSNYVMHWVRQAPGKGLEWVAVIWYDGSNKYYADSVKGRFTISRDNSKNTLYLQMNSLRAEDTAVYYCTREVYSSGWYDYGMDVWGQGTTVTVSS
VL: DIQMTQSPSSLSASVGDRVTITCRASQGIRNDLGWYQQKPGKAPKRLIYAASSLQSGVPSRFSGSGSGTEFTLTISSLQPEDFATYYCLQHYSYPRTFGQGTKVEVK
B5: 194C10 (antibody, V domains shown)
VH: QVQLQQWGAGLLKPSETLSLTCAVSGGSFRYYYWSWIRQPPGKGLEWFGEINHSGSTNYNPSLKSRVTISIDTSKNQFSLKLRSVTAADTAVYYCARDYGAFDIWGQGTMVTVSS
VL: EIVLTQSPGTLSLSPGERATLSCRASPSVNSGYLAWYQQKPGQTPRLLIFGASSRATGIPDRFSASGSGADFTLTISRLEPEDFAVYFCQQYESSPWTFGQGTKVEIK

Biological target: T1, human ASGR-1 (on CHO-S cells)
Assay: competition, FACS, GalNAc-PAA

IC50 [nM] | Binder
73 | B1
11 | B2
54 | B3
> 200 | B4
87 | B5

Biological target: T1, human ASGR-1 (on CHO-S cells)
Assay: competition, FACS, asialofetuin

IC50 [nM] | Binder
59 | B1
3.4 | B2
11 | B3
16 | B4
30 | B5
